Data: paper PMC7782203

Target: recombinant human protective protein/cathepsin A (rhPPCA), 54-kDa precursor form (human)
Experiment: SEC

stoichiometry N: 2
Substance: recombinant human protective protein/cathepsin A (rhPPCA), 54-kDa precursor form (enzyme)
